Data reported in patent US20230408517A1 (BIO TECHNE, published 2023).
Where two headings read alike, the source gives them in different places.

Key:
[1] = target: T1, UK variant RBD (R319-F541 with N501Y), C-terminal 6-His (SARS-CoV-2, UniProt P0DTC2 319-541); experiment: lateral flow NC50, RBD-AuNP vs immobilised ACE2
[2] = target: T2, recombinant SARS-CoV-2 spike S1 RBD (R319-F541), C-terminal 6-His (SARS-CoV-2, UniProt P0DTC2 319-541); experiment: lateral flow NC50, RBD-AuNP vs immobilised ACE2
[3] = target: T1, UK variant RBD (R319-F541 with N501Y), …; experiment: sandwich dipstick, detector Ab5-AuNP
[4] = target: T2, recombinant SARS-CoV-2 spike S1 RBD …; experiment: sandwich dipstick, detector Ab5-AuNP
[5] = target: T3, SA variant RBD (R319-F541 with K417N, E484K, N501Y), C-terminal 6-His (SARS-CoV-2, UniProt P0DTC2 319-541); experiment: sandwich dipstick, detector Ab5-AuNP
[6] = target: T4, BR P.1 variant RBD (R319-F541 with K417T, E484K, N501Y), C-terminal 6-His (SARS-CoV-2, UniProt P0DTC2 319-541); experiment: sandwich dipstick, detector Ab5-AuNP
[7] = target: T1, UK variant RBD (R319-F541 with N501Y), …; experiment: sandwich dipstick, capture Ab7, detector Ab4-AuNP
[8] = target: T2, recombinant SARS-CoV-2 spike S1 RBD …; experiment: sandwich dipstick, capture Ab7, detector Ab4-AuNP
[9] = target: T3, SA variant RBD (R319-F541 with K417N, …); experiment: sandwich dipstick, capture Ab7, detector Ab4-AuNP
[10] = target: T4, BR P.1 variant RBD (R319-F541 with …); experiment: sandwich dipstick, capture Ab7, detector Ab4-AuNP
[11] = target: T3, SA variant RBD (R319-F541 with K417N, …); experiment: lateral flow NC50, RBD-AuNP vs immobilised ACE2
[12] = target: T4, BR P.1 variant RBD (R319-F541 with …); experiment: lateral flow NC50, RBD-AuNP vs immobilised ACE2
[13] = target: rSARS2-B.1.1.7 S aa16-1211 4x aa mut., C-His (SARS-CoV-2, UniProt P0DTC2 16-1211); experiment: flow cytometry, blocking of binding to hACE-2 cells
[14] = target: rSARS2 RBD aa319-541, N439K, C-His (SARS-CoV-2, UniProt P0DTC2 319-541); experiment: as above
[15] = target: T5, IN v2 variant RBD (R319-F541 with L452R, T478K) (SARS-CoV-2, UniProt P0DTC2 319-541); experiment: as above
[16] = target: rSARS2-B.1.617.2 S aa16-1211 10+4x aa mut., C-His (SARS-CoV-2, UniProt P0DTC2 16-1211); experiment: as above
[17] = target: rSARS2-B.1.1.7 S aa16-1211 2x aa mut., C-His (SARS-CoV-2, UniProt P0DTC2 16-1211); experiment: as above
[18] = target: T4, BR P.1 variant RBD (R319-F541 with …); experiment: as above
[19] = target: T1, UK variant RBD (R319-F541 with N501Y), …; experiment: lateral flow NC50, RBD-AuNP vs immobilised ACE2; remark: listed apart in the source
[20] = target: K417E RBD (R319-F541 with K417E) (SARS-CoV-2, UniProt P0DTC2 319-541); experiment: lateral flow NC50, RBD-AuNP vs immobilised ACE2
[21] = target: T2, recombinant SARS-CoV-2 spike S1 RBD …; experiment: lateral flow NC50, RBD-AuNP vs immobilised ACE2; remark: listed apart in the source
[22] = target: T478K RBD (R319-F541 with T478K) (SARS-CoV-2, UniProt P0DTC2 319-541); experiment: lateral flow NC50, RBD-AuNP vs immobilised ACE2
[23] = target: T2, recombinant SARS-CoV-2 spike S1 RBD …; experiment: flow cytometry, blocking of binding to hACE-2 cells
[24] = target: T2, recombinant SARS-CoV-2 spike S1 RBD …; experiment: as above; remark: listed apart in the source
[25] = target: T5, IN v2 variant RBD (R319-F541 with …); experiment: dipstick, adsorbed RBD spots, Ab 10 µg/mL, GAM-AuNP
[26] = target: BR P.2 variant RBD (R319-F541 with E484K) (SARS-CoV-2, UniProt P0DTC2 319-541); experiment: as above
[27] = target: IN v1 variant RBD (R319-F541 with L452R, E484Q) (SARS-CoV-2, UniProt P0DTC2 319-541); experiment: as above
[28] = target: L452R RBD (R319-F541 with L452R) (SARS-CoV-2, UniProt P0DTC2 319-541); experiment: as above

B1: 1035240 (antibody, V domains shown)
VH: QVQLQQSGAELARPGASVKMSCKASGYTFTTYTMHWVKQRPGQGLEWIGYINPSSGYTNYNQKFKDKATLTADTSSSTAYMQLSSLTSEDSAVYYCARRNPLYAMDYWGQGTSVTVSS
VL: DIKMTQSPSSMYASLGERVTITCKASQDINSYLNWFQQKPGKSPKTLIYRANRLVDGVPSRFSGSGSGQDYSLTISSLEYEDMGIYYCLQYDEFPYTFGGGTKLEIK
[1]
  IC50: 0.86 µg/mL
[2]
  IC50: 0.34 µg/mL
[3]
  detection sensitivity: 0.001 µg/mL
[4]
  detection sensitivity: 0.001 µg/mL
[5]
  detection sensitivity: 0.001 µg/mL
[6]
  detection sensitivity: 0.001 µg/mL
[7]
  detection sensitivity: 0.01 µg/mL
[8]
  detection sensitivity: 0.01 µg/mL
[9]
  detection sensitivity: 0.1 µg/mL
[10]
  detection sensitivity: 0.1 µg/mL
[11]
  IC50: > 45 µg/mL
[12]
  IC50: > 45 µg/mL
[13]
  percent blocking: 78.6%
[14]
  percent blocking: 49%
[15]
  percent blocking: 0.7%
[16]
  percent blocking: 0%
[17]
  percent blocking: 91.2%
[18]
  percent blocking: 0%
[19]
  IC50: 0.86 µg/mL
[20]
  IC50: 0.33 µg/mL
[21]
  IC50: 0.34 µg/mL
[22]
  IC50: 0.61 µg/mL
[23]
  percent blocking: 99.1%
[24]
  percent blocking: 99.1%
[25]
  binding result: no binding (tested: 10 µg/mL)
[26]
  binding result: no binding (tested: 10 µg/mL)
[27]
  binding result: no binding (tested: 10 µg/mL)
[28]
  binding result: no binding (tested: 10 µg/mL)
